From US20200361992A1 (PROTAGONIST THERAPEUTICS, published 2020) come the findings set out here.

Starred links: 1 amine or outer side, 2 acyl side, 3 side chain; linkers in the order of their positions; H or OH if unused. Positions of bridges follow the written chain, without caps; N, C: chain ends. Non-standard residues stand in square brackets, D forms with d. Groups on a side chain read outwards from the residue. Primed or numbered codes have the meaning given here. *: point of attachment. PEG4′ = bifunctional PEG linker with 4 polyethylene glycol units; PEG12 = NCCOCCOCCOCCOCCOCCOCCOCCOCCOCCOCCOCCOCCC(=O)O; Phe(4-tBu) = CC(C)(C)c1ccc(C[C@H](N)C(=O)O)cc1; Docosanoyl = CCCCCCCCCCCCCCCCCCCCCC(=O)*; Dip = N[C@H](C(=O)O)C(c1ccccc1)c1ccccc1; γGlu = O=C(O)[C@H](CCC(=O)[*:2])N[*:1]; Palmitoyl = CCCCCCCCCCCCCCCC(=O)*; Pen = CC(C)(S)[C@H](N)C(=O)O; Isovaleryl = CC(C)CC(=O)*; PEG2′ = not defined here; PEG8′ = not defined here; Npc = nipecotic acid; Ahx = NCCCCCC(=O)O; Sar = CNCC(=O)O

T1: human ferroportin (SLC40A1) fused with GFP, stably expressed in HEK293 cells (human, UniProt Q9NP59 1-571)
T1 sequence (looked up): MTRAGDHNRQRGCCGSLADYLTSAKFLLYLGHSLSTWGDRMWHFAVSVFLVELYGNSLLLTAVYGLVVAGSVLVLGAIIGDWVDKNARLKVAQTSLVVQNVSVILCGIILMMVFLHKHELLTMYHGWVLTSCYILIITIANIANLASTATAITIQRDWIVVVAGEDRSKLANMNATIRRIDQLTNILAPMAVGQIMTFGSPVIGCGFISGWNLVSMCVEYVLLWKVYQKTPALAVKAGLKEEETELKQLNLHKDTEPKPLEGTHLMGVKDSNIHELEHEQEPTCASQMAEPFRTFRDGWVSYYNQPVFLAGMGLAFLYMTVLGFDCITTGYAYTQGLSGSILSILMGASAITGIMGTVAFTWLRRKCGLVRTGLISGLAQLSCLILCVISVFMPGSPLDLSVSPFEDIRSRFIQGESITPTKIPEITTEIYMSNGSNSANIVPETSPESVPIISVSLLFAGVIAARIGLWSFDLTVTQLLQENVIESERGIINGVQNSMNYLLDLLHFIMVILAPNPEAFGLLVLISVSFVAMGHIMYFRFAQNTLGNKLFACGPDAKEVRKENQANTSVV

B1: Compd ID 105 (peptide)
peptide: DTHXPCIKXKKC
modifications: Isovaleric acid-D-T-H-[Dpa]-P-C-I-[(D)Lys]-[b-homoPhe]-Lys[PEG11-Palm]-[(D)Lys]-[Cys]-NH2

The assay deals with T1, human ferroportin (SLC40A1) fused with …. The assay can be described thus: cell-based or functional assay.
Regarding Isovaleryl-DTHFPCI[dK]FK([PEG8′-Palmitoyl])KC-NH2 (disulfide 6-12 (inferred)) [Compd ID 95], the “FPN IC50” value worked out at 28 nM.
The result for Isovaleryl-DTHFPCI[dK]FK([PEG2′-Palmitoyl])KC-NH2 (disulfide 6-12 (inferred)) [Compd ID 87] reads 15 nM; that for Isovaleryl-DTHFPCI[dK]FK([PEG12-Palmitoyl])KC-NH2 (disulfide 6-12 (inferred)) [Compd ID 80], 14 nM.
In the case of DTHFPCIKFKXC (Isovaleric acid-DTHFPCI-[(D)Lys]-F-Lys[PEG11-Palm]-Dap-[Cys]-NH2) [Compd ID 99] it was 21 nM; in that of Isovaleryl-DTHFPCI[dK]F[dK]([PEG12-Palmitoyl])[dK]C-NH2 (disulfide 6-12 (inferred)) [Compd ID 107], 60 nM.
As for Isovaleryl-DTHFPCI[dK]FK([PEG4′-Ahx-Palmitoyl])KC-NH2 (disulfide 6-12 (inferred)) [Compd ID 92], the “FPN IC50” value was found to be 21 nM.
In the case of Isovaleryl-DTHFPCI[dK]FK([PEG2′-PEG2′-Ahx-Palmitoyl])KC-NH2 (disulfide 6-12 (inferred)) [Compd ID 90] it was 11 nM; in that of Isovaleryl-DTH[Dip][Npc]CI[dK]FK([PEG12-Palmitoyl])KC-NH2 (disulfide 6-12 (inferred)) [Compd ID 109], 2 nM; in that of Isovaleryl-DTHFPCI[dK]FK([PEG2′-PEG2′-C18 acid])KC-NH2 (disulfide 6-12 (inferred)) [Compd ID 89], 27 nM.
For the molecule DTHFPCIKFKPRC (Isovaleric acid-DTHFPCIKF-Lys[PEG11-Palm]-PRC-NH2) [Compd ID 6], the “FPN IC50” value amounted to 17 nM.
As for Isovaleryl-DTH[Dip][Npc]CI[dK][Phe(4-tBu)]K([PEG12-Palmitoyl])KC-NH2 (disulfide 6-12 (inferred)) [Compd ID 110], the “FPN IC50” value worked out at 3 nM.
With DTHFPCIKXKKC (Isovaleric acid-DTHFPCI-[(D)Lys]-[Dpa]-Lys[PEG11-Palm]-K-[Cys]-NH2) [Compd ID 100], the “FPN IC50” value stood at 16 nM.
In the case of Isovaleryl-DTHFPCI[dK]FK([PEG12-Palmitoyl])PRCK-NH2 (disulfide 6-13 (inferred)) [Compd ID 77] it was 15 nM; in that of DTHFPCIKFKPRSC (Isovaleric acid-DTHFPCIKF-Lys[PEG11-Palm]-PRSC-NH2) [Compd ID 5], 30 nM.
In the case of Isovaleryl-DTHFPCI[dK]FK([PEG4′-PEG4′-Palmitoyl])KC-NH2 (disulfide 6-12 (inferred)) [Compd ID 93] it was 18 nM.
The result for DTHFPCIKFKPC (Isovaleric acid-DTHFPCIKF-Lys[PEG11-Palm]-PC-NH2) [Compd ID 7] reads 10 nM; that for Isovaleryl-DTHFPCI[dK]FK([PEG12-Palmitoyl])RC[dR]-NH2 (disulfide 6-12 (inferred)) [Compd ID 85], 27 nM.
For Isovaleryl-DTHFPCI[dK]FK([PEG12-Palmitoyl])[dK]C-NH2 (disulfide 6-12 (inferred)) [Compd ID 82], the “FPN IC50” value came out at 13 nM.
Take DTHFPCIKXKKC (Isovaleric acid-DTHFPCI-[(D)Lys]-[Nal]-Lys[PEG11-Palm]-K-[Cys]-NH2) [Compd ID 102]: the “FPN IC50” value turned out to be 17 nM.
Regarding Isovaleryl-DTHFPCI[dK]FK([PEG12-Palmitoyl])PRSKC-NH2 (disulfide 6-15 (inferred)) [Compd ID 73], the “FPN IC50” value is 11 nM.
For Isovaleryl-DTHFPCI[dK]FK([PEG12-Palmitoyl])RC-NH2 (disulfide 6-12 (inferred)) [Compd ID 79], the “FPN IC50” value is 22 nM.
The result for DTHFPCIKXKKC (Isovaleric acid-DTHFPCI-[(D)Lys]-[b-homoPhe]-Lys[PEG11-Palm]-K-[Cys]-NH2) [Compd ID 101] reads 24 nM; that for DTHFPCIKXKKC (Isovaleric acid-DTHFPCI-[(D)Lys]-[bhomoPhe]-Lys[PEG11-Palm]-K-[Cys]-NH2) [Compd ID 103], 20 nM.
In the case of Isovaleryl-DTHFPCI[dK]FK([PEG12-Palmitoyl])[dR]C-NH2 (disulfide 6-12 (inferred)) [Compd ID 81] it was 9 nM; in that of Isovaleryl-DTHFPCI[dK]FK([PEG12-Palmitoyl])PRSK[Sar]C-NH2 (disulfide 6-16 (inferred)) [Compd ID 74], 9 nM.
Regarding Isovaleryl-DTHFPCI[dK]FK([PEG12-Palmitoyl])PPRSCK-NH2 (disulfide 6-15 (inferred); not fully specified) [Compd ID 76], the “FPN IC50” value amounted to 16 nM.
With Isovaleryl-DTHFPCI[dK]FK([PEG12-Palmitoyl])PRSKCK-NH2 (disulfide 6-15 (inferred)) [Compd ID 75], the “FPN IC50” value turned out to be 14 nM.
DTHFPCIKFKPRSKC (Isovaleric acid-DTHFPCIKF-Lys[PEG11-Palm]-PRSKC-NH2) [Compd ID 4]: the “FPN IC50” value came out at 32 nM.
In the case of Isovaleryl-DTHFPCI[dK]FK([PEG2′-PEG2′-Palmitoyl])KC-NH2 (disulfide 6-12 (inferred)) [Compd ID 88] it was 13 nM; in that of Isovaleryl-DTHFPCIFK([PEG12-Palmitoyl])KC-NH2 (disulfide 6-11 (inferred)) [Compd ID 106], 40 nM; in that of Isovaleryl-DTHFPCI[dK]FK([Ahx-Palmitoyl])KC-NH2 (disulfide 6-12 (inferred)) [Compd ID 86], 9 nM.
As for Isovaleryl-DTHFPCI[dK]FK([PEG12-Palmitoyl])PRSC-NH2 (disulfide 6-14 (inferred)) [Compd ID 72], the “FPN IC50” value was found to be 12 nM.
The result for Isovaleryl-DTHFPCI[dK]FK([PEG12-Palmitoyl])CK-NH2 (disulfide 6-11 (inferred)) [Compd ID 78] reads 17 nM; that for Isovaleryl-DTHFPCI[dK]FK([PEG12-Palmitoyl])HC[dH]-NH2 (disulfide 6-12 (inferred)) [Compd ID 84], 16 nM.
The result for Isovaleryl-DTHFPCI[dK]FK([PEG12-Palmitoyl])K[Pen]-NH2 (disulfide 6-12 (inferred)) [Compd ID 98] reads 40 nM.
The result for Isovaleryl-DTHFPCI[dK]FK(Docosanoyl)KC-NH2 (disulfide 6-12 (inferred)) [Compd ID 96] reads 30 nM; that for Isovaleryl-DTHFPCI[dK]FK([PEG4′-Palmitoyl])KC-NH2 (disulfide 6-12 (inferred)) [Compd ID 91], 14 nM; that for DTHXPCIKFKKC (Isovaleric acid-D-T-H-[Dpa]-P-C-I-[(D)Lys]-F-Lys[PEG11-Palm]-K-[Cys]-NH2) [Compd ID 104], 27 nM.
As to B1, the “FPN IC50” value is 31 nM.
Isovaleryl-DTHFPCI[dK]FK([PEG12-Palmitoyl])KC[dK]-NH2 (disulfide 6-12 (inferred)) [Compd ID 83]: the “FPN IC50” value is 40 nM.
As for Isovaleryl-DTHFPCI[dK]FK([PEG12-Palmitoyl])K[dC]-NH2 (disulfide 6-12 (inferred)) [Compd ID 97], the “FPN IC50” value was found to be 41 nM.
The result for Isovaleryl-DTHFPCI[dK]FK([PEG4′-γGlu-Palmitoyl])KC-NH2 (disulfide 6-12 (inferred)) [Compd ID 94] reads 9 nM.
